Consider three proteins from publication PMC7924733 (Journal of molecular biology, 2021).

A word on the stoichiometry N: it is the number of molecules, sites or subunits per partner or assembly.

Numbering of substitutions follows the chain as printed. Numbers in names are those of the source.

The series deals with the molecule itself. Nature of the series: cross-linking.

B1: His6-Atg16 L71C (natural protein, S. cerevisiae, UniProt Q03818 1-150, looked up)
chain: MGNFIITERKKAKEERSNPQTDSMDDLLIRRLTDRNDKEAHLNELFQDNSGAIGGNIVSHDDALLNTLAICQKELKSKEQEIRRLKEVIALKNKNTERLNDELISGTIENNVLQQKLSDLKKEHSQLVARWLKKTEKETEAMNSEIDGTK
For B1, the “stoichiometry N” value came out at 2.

B2: Atg16 L71C L120C (natural protein, S. cerevisiae, UniProt Q03818 1-150, looked up)
chain: B1 chain with L120C
Turning to B2, the “stoichiometry N” value was 2.

B3: Atg16 L71C L85C L99C L120C (natural protein, S. cerevisiae, UniProt Q03818 1-150, looked up)
chain: B1 chain with L85C, L99C, L120C
Turning to B3, the “stoichiometry N” value turned out to be 2.
